The text below walks through data of the supplement of paper PMC9112550, “Optimization of the antimicrobial peptide Bac7 by deep mutational scanning” (BMC Biology, 2022).

The data set deals with Escherichia coli TOP10. The data set is described as follows: shrunken log2 fold change of peptide-encoding DNA abundance (4.5 h post-induction vs induction); higher = less antimicrobial activity (less host growth inhibition). The conditions noted are these: time post-induction: 4.5 h; library: site-saturation at positions 5, 18, 19, 20.
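Also: peptides expressed intracellularly from a pBAD plasmid library in pooled LB shake-flask culture, induced with 0.3% L-arabinose, DNA abundance read by NGS, three biological replicates, DESeq2 with apeglm shrinkage.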

On to RRIRARPPRLPRPRPRPCVTPRP, for which the “shrunken log2 fold change” value was determined as 0.176.
Turning to RRIRVRPPRLPRPRPRPYPLPRP, the “shrunken log2 fold change” value is -0.478.
As to RRIRLRPPRLPRPRPRPHLYPRP, the “shrunken log2 fold change” value came out at 0.61.
RRIRARPPRLPRPRPRPHKKPRP: the “shrunken log2 fold change” value is -0.163.
On to RRIRGRPPRLPRPRPRPWMRPRP, for which the “shrunken log2 fold change” value is 0.444.
With RRIRCRPPRLPRPRPRPISWPRP, the “shrunken log2 fold change” value is -0.105.
As for RRIRARPPRLPRPRPRPWHSPRP, the figure is 0.0528.
With RRIRSRPPRLPRPRPRPLDLPRP, the “shrunken log2 fold change” value is -0.154.
With RRIRQRPPRLPRPRPRPFREPRP, the “shrunken log2 fold change” value was -0.0101.
As for RRIRCRPPRLPRPRPRPKMRPRP, the figure is -0.00909.
Next, RRIRMRPPRLPRPRPRPFAWPRP: 0.139.
Next, RRIRERPPRLPRPRPRPLTSPRP: -0.00875.
Regarding RRIRWRPPRLPRPRPRPTADPRP, the “shrunken log2 fold change” value turned out to be 1.51.
As for RRIRERPPRLPRPRPRPNNKPRP, the figure is -0.849.
RRIRHRPPRLPRPRPRPGFTPRP: the “shrunken log2 fold change” value was -0.358.
With RRIRCRPPRLPRPRPRPDELPRP, the “shrunken log2 fold change” value was -0.044.
Next, RRIRNRPPRLPRPRPRPKTSPRP: -0.0653; RRIRVRPPRLPRPRPRPWMWPRP: 0.091; RRIRIRPPRLPRPRPRPRKVPRP: -0.0904.
Next, RRIRERPPRLPRPRPRPKYGPRP: -0.567.
In the case of RRIRQRPPRLPRPRPRPCMMPRP, the “shrunken log2 fold change” value is -0.498.
Next, RRIRWRPPRLPRPRPRPHVNPRP: -0.315.
As for RRIRFRPPRLPRPRPRPREQPRP, the figure is 0.204; as for RRIRHRPPRLPRPRPRPYREPRP, 0.0421; as for RRIRTRPPRLPRPRPRPWMYPRP, -0.22.
Next, RRIRGRPPRLPRPRPRPLPIPRP: 0.0433.
On to RRIRLRPPRLPRPRPRPPNFPRP, for which the “shrunken log2 fold change” value turned out to be 0.0275.
Next, RRIRFRPPRLPRPRPRPDQDPRP: -0.00191; RRIRERPPRLPRPRPRPKVPPRP: -0.015; RRIRERPPRLPRPRPRPDCNPRP: -0.395.
Consider RRIRGRPPRLPRPRPRPYREPRP, for which the “shrunken log2 fold change” value worked out at 0.00752.
Next, RRIRRRPPRLPRPRPRPGEMPRP: 0.122; RRIRHRPPRLPRPRPRPSMCPRP: -0.448; RRIRCRPPRLPRPRPRPPINPRP: -0.319.
As to RRIRIRPPRLPRPRPRPKRWPRP, the “shrunken log2 fold change” value was -0.0451.
RRIRPRPPRLPRPRPRPEWEPRP: the “shrunken log2 fold change” value turned out to be 0.304.
Next, RRIRYRPPRLPRPRPRPGEVPRP: -0.0129.
As for RRIRERPPRLPRPRPRPMYHPRP, the figure is -0.594; as for RRIRQRPPRLPRPRPRPPTWPRP, -0.0557.
As for RRIRSRPPRLPRPRPRPPDIPRP, the figure is -0.283; as for RRIRLRPPRLPRPRPRPQLAPRP, 0.384; as for RRIRMRPPRLPRPRPRPTMAPRP, 1.03.
On to RRIRNRPPRLPRPRPRPERTPRP, for which the “shrunken log2 fold change” value was -0.00566.
Next, RRIRQRPPRLPRPRPRPKVLPRP: 0.0378.
For the sequence RRIRTRPPRLPRPRPRPAHKPRP, the “shrunken log2 fold change” value stood at 0.0105.
On to RRIRNRPPRLPRPRPRPNCNPRP, for which the “shrunken log2 fold change” value is -0.549.
For RRIRERPPRLPRPRPRPQLGPRP, the “shrunken log2 fold change” value came to 0.329.
RRIRPRPPRLPRPRPRPPVLPRP: the “shrunken log2 fold change” value was -0.0339.
In the case of RRIRHRPPRLPRPRPRPYWPPRP, the “shrunken log2 fold change” value was -0.306.
With RRIRTRPPRLPRPRPRPQTDPRP, the “shrunken log2 fold change” value is -0.466.
Turning to RRIRSRPPRLPRPRPRPGHMPRP, the “shrunken log2 fold change” value is 0.0805.
RRIRIRPPRLPRPRPRPQTQPRP: the “shrunken log2 fold change” value was -0.244.
With RRIRDRPPRLPRPRPRPTRVPRP, the “shrunken log2 fold change” value turned out to be 0.0497.
Regarding RRIRVRPPRLPRPRPRPWIYPRP, the “shrunken log2 fold change” value worked out at 0.0875.
As for RRIRTRPPRLPRPRPRPINQPRP, the figure is -0.274; as for RRIRYRPPRLPRPRPRPLNQPRP, -0.343; as for RRIRKRPPRLPRPRPRPRHSPRP, 0.152.
On to RRIRLRPPRLPRPRPRPNQEPRP, for which the “shrunken log2 fold change” value is 0.0423.
Next, RRIRTRPPRLPRPRPRPPGAPRP: 0.995; RRIRFRPPRLPRPRPRPGWWPRP: -0.0573; RRIRHRPPRLPRPRPRPHSHPRP: -0.41.
As for RRIRLRPPRLPRPRPRPYSRPRP, the figure is 0.0264; as for RRIRDRPPRLPRPRPRPCHMPRP, 0.00148.
As for RRIRMRPPRLPRPRPRPQLFPRP, the figure is 0.0897; as for RRIRHRPPRLPRPRPRPRCMPRP, -0.153.
Regarding RRIRYRPPRLPRPRPRPLRIPRP, the “shrunken log2 fold change” value was -0.36.
As for RRIRHRPPRLPRPRPRPKFTPRP, the figure is -0.219; as for RRIRPRPPRLPRPRPRPPDDPRP, 0.142.
Next, RRIRRRPPRLPRPRPRPSWFPRP: 0.165.
As for RRIRFRPPRLPRPRPRPICDPRP, the figure is 0.0526.
For RRIRGRPPRLPRPRPRPGDEPRP, the “shrunken log2 fold change” value was determined as 1.81.
Next, RRIRLRPPRLPRPRPRPDYPPRP: -0.307; RRIRIRPPRLPRPRPRPHTFPRP: -1.53.
With RRIRNRPPRLPRPRPRPQLAPRP, the “shrunken log2 fold change” value is -0.123.
Next, RRIRCRPPRLPRPRPRPRAKPRP: 0.26; RRIRARPPRLPRPRPRPKICPRP: 0.0997.
As for RRIRSRPPRLPRPRPRPSWAPRP, the figure is -0.0813.
Next, RRIRFRPPRLPRPRPRPEAEPRP: 0.684.
With RRIRFRPPRLPRPRPRPIPRPRP, the “shrunken log2 fold change” value was 0.365.
Consider RRIRIRPPRLPRPRPRPVDSPRP, for which the “shrunken log2 fold change” value came out at 0.0804.
As for RRIRWRPPRLPRPRPRPTTIPRP, the “shrunken log2 fold change” value is 0.127.
Next, RRIRKRPPRLPRPRPRPDQIPRP: -0.0414.
As for RRIRRRPPRLPRPRPRPYISPRP, the figure is -0.485; as for RRIRPRPPRLPRPRPRPPWEPRP, 0.0889.
For RRIRFRPPRLPRPRPRPLFNPRP, the “shrunken log2 fold change” value is -0.605.
Next, RRIRGRPPRLPRPRPRPEDVPRP: 0.157; RRIRSRPPRLPRPRPRPHYKPRP: -0.891.
For the sequence RRIRLRPPRLPRPRPRPSCPPRP, the “shrunken log2 fold change” value is -0.169.
For the sequence RRIRGRPPRLPRPRPRPKPEPRP, the “shrunken log2 fold change” value was determined as 0.819.
Consider RRIRIRPPRLPRPRPRPPITPRP, for which the “shrunken log2 fold change” value is -0.366.
As for RRIRGRPPRLPRPRPRPNDRPRP, the “shrunken log2 fold change” value came out at 0.288.
In the case of RRIRGRPPRLPRPRPRPRMHPRP, the “shrunken log2 fold change” value was 0.997.
As for RRIRTRPPRLPRPRPRPLMKPRP, the figure is -0.26.
As for RRIRFRPPRLPRPRPRPWCSPRP, the figure is -0.714.
Regarding RRIRWRPPRLPRPRPRPTQFPRP, the “shrunken log2 fold change” value was determined as 0.0858.
As for RRIRYRPPRLPRPRPRPNNEPRP, the figure is -1.27.
For the sequence RRIRKRPPRLPRPRPRPVWVPRP, the “shrunken log2 fold change” value turned out to be 0.15.
As for RRIRERPPRLPRPRPRPKFYPRP, the figure is -0.519; as for RRIRTRPPRLPRPRPRPYNQPRP, -0.33.
As for RRIRRRPPRLPRPRPRPHYVPRP, the figure is -0.13; as for RRIRKRPPRLPRPRPRPASFPRP, 0.559.
RRIRSRPPRLPRPRPRPTFWPRP: the “shrunken log2 fold change” value was determined as 0.536.
As for RRIRSRPPRLPRPRPRPQMRPRP, the figure is 0.691; as for RRIRGRPPRLPRPRPRPVISPRP, 0.623.
With RRIRYRPPRLPRPRPRPERNPRP, the “shrunken log2 fold change” value came out at 0.00677.
Next, RRIRNRPPRLPRPRPRPNNIPRP: -0.551; RRIRTRPPRLPRPRPRPELYPRP: -0.258.
Next, RRIRERPPRLPRPRPRPIPIPRP: -0.027; RRIRMRPPRLPRPRPRPPLKPRP: 1.23; RRIRFRPPRLPRPRPRPRGRPRP: 0.454.
As for RRIRGRPPRLPRPRPRPIRQPRP, the figure is -0.0411; as for RRIRFRPPRLPRPRPRPINHPRP, -0.511; as for RRIRARPPRLPRPRPRPHLAPRP, 0.298.
RRIRVRPPRLPRPRPRPGLAPRP: the “shrunken log2 fold change” value was determined as 0.166.
As for RRIRGRPPRLPRPRPRPACEPRP, the figure is 0.833; as for RRIRWRPPRLPRPRPRPRTFPRP, 0.3.
Next, RRIRIRPPRLPRPRPRPFDDPRP: 0.0183.
In the case of RRIRYRPPRLPRPRPRPNPTPRP, the “shrunken log2 fold change” value turned out to be 0.0161.
As for RRIRVRPPRLPRPRPRPVNSPRP, the figure is -0.184; as for RRIRKRPPRLPRPRPRPKSSPRP, 0.202.
As for RRIRNRPPRLPRPRPRPPKAPRP, the figure is 0.00248; as for RRIRDRPPRLPRPRPRPRRSPRP, 0.174; as for RRIRIRPPRLPRPRPRPQPGPRP, 0.116.
Next, RRIRARPPRLPRPRPRPFAAPRP: 0.644; RRIRPRPPRLPRPRPRPDALPRP: 0.0315.
